Assay results: the supplement of paper PMC10724198
± gives the standard deviation of the averaged measurements.

These sequences were tested on Saccharomyces cerevisiae (assay: protein stability index of tFT-peptide fusion (C-terminal peptide) (PSI (0-1 scale)); higher = more stable (slower turnover)). Conditions: genetic background: wild type; temperature: 30 C.
Method: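 Multiplexed protein stability (MPS) profiling in S. cerevisiae. Random 12-aa peptides (tFT-X12 library) are fused to the C-terminus of a sfGFP-mCherry tandem fluorescent timer, after mCherry and a GGGS linker. Cells are FACS-sorted into 8 mCherry/sfGFP bins and deep-sequenced. The protein stability index (PSI) is the read-weighted bin average, scaled from 0 (unstable) to 1 (stable). Only peptides with >10 reads are reported; cells were grown at 30 °C in SC-His with glucose.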
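Also: PSI is a weighted mean of sequencing reads over stability bins, variants kept only with over 10 reads, mCherry proximal and sfGFP distal, peptide attached via GGGS linker.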

Row | Sequence | protein stability index
1 | PAPASDYLRGRR | 0.691 ± 0.049
2 | APPPPPPFPPLP | 0.684 ± 0.093
3 | CRGYRFLSEMKV | 0.645 ± 0.07
4 | VGGVDMCGARVV | 0.754 ± 0.032
5 | SPPPPTLPPAYL | 0.6577 ± 0.0025
6 | PPPASSPPPSAS | 0.626 ± 0.062
7 | LRSPPSLLPLSL | 0.7056 ± 0.0033
8 | RLPHCLRPPLSP | 0.669 ± 0.069
9 | LPPSPLMTRTCA | 0.6343 ± 0.0041
10 | ARPAPHRSRRPS | 0.68 ± 0.013
11 | IARENLNRSRFS | 0.6602 ± 0.0056
12 | RLPASGTPAYSE | 0.67 ± 0.02
13 | KKTQKKKKLIPQ | 0.7046 ± 0.0062
14 | KKKKEISNEAKQ | 0.672 ± 0.093
15 | AIPRPPRVWGHL | 0.727 ± 0.016
16 | TKKKNKLRNKQE | 0.664 ± 0.048
17 | RWGVRFWVGDSV | 0.687 ± 0.017
18 | PRPPSPAPPPHP | 0.69904 ± 0.00044
19 | LFIVSFSPGFPF | 0.635 ± 0.11
20 | RERPHSDYLACH | 0.691 ± 0.026
21 | KKSLNTKIQTRE | 0.707 ± 0.029
22 | HSRRCDGLPGWV | 0.671 ± 0.03
23 | LPPPPPHRTGDC | 0.5859 ± 0.0028
24 | TFTSTTLARPFS | 0.831 ± 0.036
25 | PLPLPPPFPPLS | 0.59 ± 0.043

Row | Sequence | protein stability index
26 | GRVGGRAGGRGR | 0.691 ± 0.039
27 | LFLELSSCVGVF | 0.62 ± 0.024
28 | PANQVKTILGRL | 0.694 ± 0.11
29 | GGRGSGLVGCSL | 0.6 ± 0.065
30 | VGSTKMRYFGEG | 0.692 ± 0.018
31 | PPPPPPPPTTVL | 0.709 ± 0.023
32 | CLLSWVLDCFLV | 0.548 ± 0.024
33 | CRLANEIMYDKN | 0.685 ± 0.014
34 | KKMSGNKLKNKN | 0.643 ± 0.013
35 | CSCPEDGILCIF | 0.62 ± 0.076
36 | PVLGRFGSTFVV | 0.674 ± 0.059
37 | PPPSPAQIPRPS | 0.722 ± 0.19
38 | GVFFVRAGSVYC | 0.579 ± 0.019
39 | PSPSLPSACARP | 0.701 ± 0.012
40 | RGPPPTSPPSPP | 0.664 ± 0.013
41 | PVASGYTMWSCV | 0.693 ± 0.015
42 | LAYAPLNGDVPY | 0.68 ± 0.01
43 | IECKKIDKKIKE | 0.688 ± 0.035
44 | PTLHVGPGTPHA | 0.705 ± 0.058
45 | PPPCPHRDGTSP | 0.664 ± 0.05
46 | GCGMCDPRCEHY | 0.743 ± 0.083
47 | GEVKRSLGQVRG | 0.695 ± 0.007
48 | LRFLLLRFILRS | 0.472 ± 0.048
49 | GGVSGEGFSWVG | 0.66987 ± 0.0004
50 | PSPAPLASPPRA | 0.693 ± 0.042

Row | Sequence | protein stability index
51 | LKFRETHIRNHP | 0.701 ± 0.05
52 | CTLMPPQSRRPP | 0.604 ± 0.057
53 | SVPPPPRTPSSI | 0.666 ± 0.03
54 | GGSGGAVEERGG | 0.6573 ± 0.0013
55 | GYSYTEFPPEAV | 0.708 ± 0.08
56 | GRGRDDKTYKKT | 0.669 ± 0.031
57 | LPVSISIGNVGR | 0.627 ± 0.025
58 | PSPLRRSTPPCL | 0.709 ± 0.13
59 | GAQVGVRFLFSI | 0.55 ± 0.011
60 | GLYTRLYIPRPC | 0.739 ± 0.033
61 | ASLIGHLKATSP | 0.672 ± 0.014
62 | PPPRPPGPPLPH | 0.702 ± 0.075
63 | RRVKRGGARKEA | 0.654 ± 0.019
64 | RWAVYDKNRETP | 0.657 ± 0.05
65 | SPPSPAFTPAPF | 0.669 ± 0.077
66 | QKDLVGSKSEYE | 0.735 ± 0.058
67 | RLSPLTLPFCTS | 0.645 ± 0.06
68 | WGYAFVGVVRGA | 0.661 ± 0.046
69 | DGCRFEFVPSGD | 0.629 ± 0.023
70 | EQRSKSHVLPPR | 0.737 ± 0.009
71 | DRWGGDWMERGG | 0.749 ± 0.05
72 | RARCFGGFCAIP | 0.724 ± 0.088
73 | GGRGPSAVGSGV | 0.74 ± 0.085
74 | QAGALTTIPTFA | 0.616 ± 0.019
75 | WYLRSFVVSTLQ | 0.533 ± 0.065

Row | Sequence | protein stability index
76 | PLFLYCRSAPRL | 0.817 ± 0.025
77 | VSIVTLSLSNFA | 0.611 ± 0.0072
78 | GVAVLAGWEVLG | 0.653 ± 0.021
79 | LTHTVLVGSALN | 0.647 ± 0.024
80 | PGRRATKVPSPR | 0.719 ± 0.027
81 | ESDLRFPGVPCI | 0.696 ± 0.011
82 | GGWAGLGAPGVS | 0.697 ± 0.028
83 | KKYNNMRKHYVK | 0.701 ± 0.02
84 | WGGCALEQGGAV | 0.736 ± 0.025
85 | SPSPPLPSPRPP | 0.594 ± 0.094
86 | RGSYLAFRVYGP | 0.648 ± 0.03
87 | QPGPPPRPHVQP | 0.676 ± 0.048
88 | NLKLIRSEYNLN | 0.658 ± 0.042
89 | LWGVGWPLLGGL | 0.691 ± 0.04
90 | VFLRVGAPPVRI | 0.586 ± 0.032
91 | GGIRGEGEVGKR | 0.69 ± 0.021
92 | RPHEAPTPGPVR | 0.646 ± 0.013
93 | SGRIYLVGLRYI | 0.538 ± 0.0068
94 | PPPPAPSPPPSP | 0.717 ± 0.0094
95 | MPENGSTKSWWK | 0.696 ± 0.082
96 | VSLALYSSVSIC | 0.5382 ± 0.0049
97 | PALTSSGPPPLV | 0.741 ± 0.096
98 | ETHHITHHQWKV | 0.683 ± 0.05
